According to US20220289837A1, “Cystic Fibrosis Transmembrane Conductance Regulator Stabilizing Agents” (VIB VZW, priority 2019, published 2022):

Assays:
[1] = biological target: T1, stab-CFTR: 2PT/ΔRI/R1048A_1172X (Homo sapiens, UniProt P13569, A534P/DEL405-436/I539T/R1048A/S492P); experiment: NanoDSF thermostability of stab-CFTR; assay type: binding; details: versus stab-CFTR alone
T1 construct: made in house; host or cells: BHK-21 cells (ATCC CCL-10), pNUT vector
Procedure: Purified stabilized human CFTR (stab-CFTR: 2PT/ΔRI/R1048A_1172X) was concentrated to 0.5 mg/ml and mixed with 0.1 mg/ml nanobody (^˜[…]) and capillaries were loaded with a volume of 10 The capillaries were placed into trays of Prometheus NT.48 (Nanotemper) and subjected to the fluorescence analysis. The emission of fluorescent radiation with the wavelengths of 330 nm and 350 nm was measured with the temperature changes from 25 to 85° C., with the rate of 1° C. min-1. The first derivative of 350 nm fluorescence was used to determine the melting temperature of the proteins.

parental BHK-21 cells = experiment: Flow cytometry on parental BHK-21 cells; assay type: cell-based, hamster; details: compared to negative control nanobody
Procedure: (§1) Parental BHK-21 cells (ATCC; CCL-10) and cells stably overexpressing human wt-CFTR^[43,44,47] or 2PT-F508del-CFTR, as described above, were permeabilized with 0.01% n-Dodecyl-β-D-Maltopyranoside β-DDM—Inalco) at least for 2 h on ice. In the meantime, cells were incubated with 50 μg/ml nanobodies and DRAQ7 (0.3 μM—Biostatus) to monitor the permeabilization state. Nanobody binding was detected by using His-tag specific antibody (Invitrogen, catalogue number MA1-135, 1 μg/ml) or Myc-tag specific antibody (Invitrogen, catalogue number 13-2500, 2 μg/ml) and then anti-mouse-Alexa Fluor 488 (Invitrogen, catalogue number A11001, 1.3 μg/ml) at least for 30 min on ice. Cells were washed one time between each step by centrifugation (200×g for 5 min at 4° C.). All incubations (100 μl) and washes (1.5 ml) were performed in PBS with 6% fetal bovine serum (FBS) and 0.01%13-DDM on ice. Cells fluorescence was measured with Gallios Flow Cytometer (Beckman Coulter). Data were analyzed with Kaluza software.

wt-CFTR [2] = biological target: T2, wt-CFTR (Homo sapiens, UniProt P13569); experiment: CFTR pull-down from solubilized BHK-21 cells with immunoblot; assay type: binding; set-up: expressed in transfected cells; details: immunoblot with mAb 596
Procedure: Human wt-CFTR was extracted from BHK-21 cells pellet by solubilization with 1% DMNG in PBS with proteases inhibitors for 1 h at 4° C. The cells debris were removed by centrifugation (16,000×g for 30 min at 4° C.). Supernatant was diluted 10 times in PBS with proteases inhibitors plus 10 mM imidazole and incubated at least for 30 min on HisPur Ni-NTA Resin (Thermo Scientific) pre-loaded with nanobodies. Resin was washed with 40 column volumes of PBS with 300 mM NaCl. Nanobodies were eluted with 200 mM imidazole in PBS. Presence of CFTR in each sample was detected by SDS-PAGE and immuno-blotting.
Cell extracts were separated by SDS-PAGE on 7.5% polyacrylamide gel and transferred to nitrocellulose membrane (Bio-Rad) for immunodetection. After blocking for 1 h with 5% bovine serum albumin (BSA) in Tris-buffered saline added 0.05% Tween-20 (TBST), CFTR was detected using monoclonal antibody mAb 596, IgG2b (CFTR Antibody Distribution Program, dilution 1:46) for 1 h in blocking buffer. Blot was washed 3 times 5 min and incubated with anti-mouse-HRP antibody (Millipore, catalogue number: AP308P, 0.2 μg/ml) for 1 h in TBST. Membrane was washed 3 times for 5 min. CFTR was visualized by chemiluminescence using Luminata Forte Western HRP Substrate (Millipore) and detected with ImageQuant 400 (GE Healthcare).

2PT-NBD1 [3] = biological target: T3, 2PT-NBD1 (Homo sapiens, UniProt P13569, A534P/I539T/S492P/V470M); experiment: Isothermal titration calorimetry (ITC) of nanobodies into 2PT-NBD1; assay type: binding; details: 20° C., 2PT-NBD1, mean±SD (n=3)
T3 construct: 2PT-NBD1 mutants (residues 387-646 containing the mutations S492P, A534P, I539T); His6-SUMO (N, cleaved yes); made in house; host or cells: Escherichia coli BL21(DE3) pLysS
Procedure: Interactions between nanobodies and 2PT-NBD1 was carried out on NanoITC system (TA Instruments) in 0.165 ml cells at 20° C., 300 rpm syringe stirring. Proteins were extensively dialyzed in 20 mM Hepes buffer pH 7.5, 150 mM NaCl, 10% (w/v) glycerol, 10% (w/v) ethylene glycol, 2 mM ATP and 3 mM MgCl2 for 16 h at 4° C. Heat of dilution from control experiments of each nanobody titrated into buffer was subtracted from the titration into 2PT-NBD1. Data were integrated analyzed with Origin 7.0 software (Origin Lab Corp.).
(§2) Affinity constants (KD) and thermodynamic parameters from ITC experiments were determined using one-site binding model with MicroCal Origin 7.0 software (Origin Lab Corp.). Dose response ELISA curves of each Nb binding to either isolated NBD1 or purified FL-CFTR were fitted using the sigmoidal dose-response equation from GraphPad Prism 3. DSC data were analyzed with the MicroCal Origin 7.0 software (Origin Lab Corp.), from which the unfolding temperature (Tm) was obtained.

wt-CFTR [4] = biological target: T2, wt-CFTR; experiment: Flow cytometry on permeabilized BHK-21 cells overexpressing wt-CFTR; assay type: cell-based; set-up: expressed in transfected cells; details: compared to negative control nanobody
Procedure: as §1

F508del-2PT-NBD1 [5] = biological target: T4, F508del-2PT-NBD1 (Homo sapiens, UniProt P13569, A534P/DEL508-508/I539T/S492P/V470M); experiment: NBD1 ELISA dose-response, nanobody binding to immobilized F508del-2PT-NBD1; details: F508del-2PT-NBD1 versus 2PT-NBD1
T4 construct: His6-SUMO (N, cleaved yes); made in house; host or cells: Escherichia coli BL21(DE3) pLysS
Procedure: For dose-response assays, Nunc MaxiSorp 96-well plates (ThermoScientific), were coated with 5 μg/ml NeutrAvidin Biotin-Binding protein (ThermoScientific) overnight at 4° C. and blocked 2 h at room temperature (RT) with 2% milk in phosphate-buffered saline (PBS). Each new reagent addition was preceded by three washes with 200 μl of NBD1 buffer (20 mM HEPES pH 7.5, 150 mM NaCl, and 10% (w/v) glycerol, 10% (w/v) ethylene glycol, 2 mM ATP, 3 mM MgCl2). Then, biotinylated purified NBD1 proteins at 5 μg/ml were immobilized 30 min at RT followed by 1 h RT incubation with 100 μl various concentrations (0-20 μg/ml) of purified nanobodies. Signal detection was followed using His-tag specific antibody (Invitrogen, catalogue number: MA1-135, 1:3000 dilution) to detect the nanobodies and secondary antibody anti-mouse coupled to horse radish peroxidase (HRP) (Millipore, catalogue number: AP308P, 1:5000 dilution). 50 μl of 1-Step UltraTMB-ELISA (ThermoScientific) was used as a substrate for the peroxidase and intensity of the reaction was proportional to absorbance measured at 450 nm with SynergyMx (BioTek) after addition of 50 μl H2SO4 at 1M.
as §2

F508del-2PT-NBD1 [6] = biological target: T4, F508del-2PT-NBD1; experiment: Thermal shift assay (DSF) of F508del-2PT-NBD1; assay type: binding
Procedure: (§3) Solutions of either 2PT-NBD1 or F508del-2PT-NBD1 (10 μM final concentration), nanobodies (30 μM final concentration) and 2.5× or 5× concentrated SYPRO Orange Protein Stain (Molecular Probes) diluted in 20 mM HEPES pH 7.5, 150 mM NaCl, 3 mM MgCl2, 2 mM ATP and 10% (w/v) glycerol, 10% (w/v) ethylene glycol, were added to the wells of a 96-well PCR plates type BR white (VWR) in a final volume of 25 μl. Plates were sealed with EasySeal sheets (Molecular dimensions) and spun 2 min at 900× g. SYPRO orange fluorescence was monitored in CFX96 Touch Real-Time PCR Detection System (Bio-Rad) using FRET scan mode from 10 to 80° C. in increments of either 1° C. or 0.2° C.

2PT-NBD1 [7] = biological target: T3, 2PT-NBD1; experiment: Thermal shift assay (DSF) of 2PT-NBD1; assay type: binding; details: versus isolated 2PT-NBD1
Procedure: as §3

T3 sequence (P13569 388-646 V470M/S492P/A534P/I539T): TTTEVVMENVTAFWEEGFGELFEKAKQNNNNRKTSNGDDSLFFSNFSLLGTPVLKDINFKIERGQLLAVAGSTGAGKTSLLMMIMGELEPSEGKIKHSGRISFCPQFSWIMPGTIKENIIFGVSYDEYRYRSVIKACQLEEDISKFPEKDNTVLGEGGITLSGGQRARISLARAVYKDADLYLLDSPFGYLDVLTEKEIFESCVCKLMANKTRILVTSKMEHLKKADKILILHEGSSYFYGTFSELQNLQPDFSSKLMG
T4 sequence (P13569 with tags, fused parts or gaps V470M/S492P/DEL508-508/A534P/I539T limits assumed): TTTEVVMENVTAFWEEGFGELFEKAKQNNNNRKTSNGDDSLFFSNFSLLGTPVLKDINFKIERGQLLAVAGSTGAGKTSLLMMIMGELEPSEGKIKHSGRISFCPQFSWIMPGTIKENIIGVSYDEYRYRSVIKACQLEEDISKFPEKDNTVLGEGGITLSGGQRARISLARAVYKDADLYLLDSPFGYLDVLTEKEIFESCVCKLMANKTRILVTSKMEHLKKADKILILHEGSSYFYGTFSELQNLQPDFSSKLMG
T2 sequence (P13569 whole entry): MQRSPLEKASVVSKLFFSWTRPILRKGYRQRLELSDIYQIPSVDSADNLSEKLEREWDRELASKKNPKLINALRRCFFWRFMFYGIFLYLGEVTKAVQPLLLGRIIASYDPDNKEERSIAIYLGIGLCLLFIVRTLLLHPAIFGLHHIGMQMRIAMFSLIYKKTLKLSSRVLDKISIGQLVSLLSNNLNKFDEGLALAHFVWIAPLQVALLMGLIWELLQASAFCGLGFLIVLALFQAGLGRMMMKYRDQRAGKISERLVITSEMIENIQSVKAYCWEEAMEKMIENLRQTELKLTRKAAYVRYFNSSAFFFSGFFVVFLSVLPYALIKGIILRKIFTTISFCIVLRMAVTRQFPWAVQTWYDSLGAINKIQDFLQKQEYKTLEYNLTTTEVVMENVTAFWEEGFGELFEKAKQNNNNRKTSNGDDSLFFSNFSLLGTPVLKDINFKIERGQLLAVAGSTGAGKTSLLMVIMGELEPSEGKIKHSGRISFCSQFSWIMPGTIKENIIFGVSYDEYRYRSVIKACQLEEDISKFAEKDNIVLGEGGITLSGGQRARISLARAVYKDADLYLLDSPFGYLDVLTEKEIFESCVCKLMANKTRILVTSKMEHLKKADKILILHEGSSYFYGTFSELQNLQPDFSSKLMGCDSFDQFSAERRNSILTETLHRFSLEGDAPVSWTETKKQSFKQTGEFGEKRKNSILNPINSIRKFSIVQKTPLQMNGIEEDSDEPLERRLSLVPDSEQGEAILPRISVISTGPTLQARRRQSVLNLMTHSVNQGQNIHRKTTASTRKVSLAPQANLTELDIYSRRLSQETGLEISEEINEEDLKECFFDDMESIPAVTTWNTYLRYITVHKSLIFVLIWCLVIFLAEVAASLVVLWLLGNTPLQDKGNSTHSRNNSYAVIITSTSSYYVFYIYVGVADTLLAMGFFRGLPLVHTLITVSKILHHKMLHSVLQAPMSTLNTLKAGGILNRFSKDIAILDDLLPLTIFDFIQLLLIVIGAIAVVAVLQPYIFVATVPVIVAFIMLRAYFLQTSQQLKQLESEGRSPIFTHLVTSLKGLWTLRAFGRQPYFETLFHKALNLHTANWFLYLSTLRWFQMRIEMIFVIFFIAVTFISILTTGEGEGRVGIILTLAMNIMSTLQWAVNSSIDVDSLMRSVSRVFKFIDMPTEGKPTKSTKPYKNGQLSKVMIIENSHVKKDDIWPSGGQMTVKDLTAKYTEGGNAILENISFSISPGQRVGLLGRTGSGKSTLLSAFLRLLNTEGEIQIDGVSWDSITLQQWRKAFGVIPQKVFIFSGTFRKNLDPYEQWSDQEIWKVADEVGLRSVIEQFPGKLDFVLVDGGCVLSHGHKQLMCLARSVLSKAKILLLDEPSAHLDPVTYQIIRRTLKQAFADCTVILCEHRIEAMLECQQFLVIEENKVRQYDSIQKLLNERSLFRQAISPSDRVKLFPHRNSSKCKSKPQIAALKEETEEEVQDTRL
T1 sequence (P13569 with tags, fused parts or gaps DEL405-436/S492P/A534P/I539T/R1048A limits assumed): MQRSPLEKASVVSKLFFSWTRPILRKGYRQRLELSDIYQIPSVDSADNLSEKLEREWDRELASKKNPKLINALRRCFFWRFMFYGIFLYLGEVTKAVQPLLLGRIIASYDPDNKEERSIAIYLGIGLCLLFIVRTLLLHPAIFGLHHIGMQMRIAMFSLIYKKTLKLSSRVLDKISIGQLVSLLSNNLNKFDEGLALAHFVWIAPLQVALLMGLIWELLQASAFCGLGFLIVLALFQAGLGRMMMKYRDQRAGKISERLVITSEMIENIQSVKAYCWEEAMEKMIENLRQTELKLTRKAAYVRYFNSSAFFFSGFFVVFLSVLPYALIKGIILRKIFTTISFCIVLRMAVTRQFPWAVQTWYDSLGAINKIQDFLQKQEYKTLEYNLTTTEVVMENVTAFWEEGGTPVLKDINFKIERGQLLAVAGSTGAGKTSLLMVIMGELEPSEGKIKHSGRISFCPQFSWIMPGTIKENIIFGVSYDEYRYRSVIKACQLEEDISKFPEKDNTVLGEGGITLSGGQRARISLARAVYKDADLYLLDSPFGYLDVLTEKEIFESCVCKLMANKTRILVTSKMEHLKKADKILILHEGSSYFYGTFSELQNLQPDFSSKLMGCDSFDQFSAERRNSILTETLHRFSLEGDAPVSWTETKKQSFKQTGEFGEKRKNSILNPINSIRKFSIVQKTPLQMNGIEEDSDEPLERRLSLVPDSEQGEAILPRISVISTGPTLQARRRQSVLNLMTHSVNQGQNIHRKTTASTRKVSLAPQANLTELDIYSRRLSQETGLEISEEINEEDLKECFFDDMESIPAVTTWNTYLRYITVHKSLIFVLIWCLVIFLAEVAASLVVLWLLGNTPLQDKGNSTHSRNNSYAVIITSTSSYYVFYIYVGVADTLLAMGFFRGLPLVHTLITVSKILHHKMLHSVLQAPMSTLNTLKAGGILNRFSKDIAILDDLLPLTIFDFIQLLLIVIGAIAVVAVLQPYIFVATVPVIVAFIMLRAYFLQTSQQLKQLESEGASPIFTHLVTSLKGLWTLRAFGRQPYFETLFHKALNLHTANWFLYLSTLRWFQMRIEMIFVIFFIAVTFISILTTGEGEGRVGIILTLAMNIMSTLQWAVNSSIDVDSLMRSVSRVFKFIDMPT

B1: T4: nanobody, SEQ ID NO:6, binds epitope 2 including F508, stabilizes wild type CFTR (protein)
VHH: QVQLQESGGGLVQAGGSLRLSCAASGSTFAIIAMGWYRQAPGKQRELVAVISTGDTRYADSVKGRFTISRDNAKNTVYLQMDSLRPEDTAVYYCNAAVQVRDYRNYWGQGTQVTVSS
modifications: T4 Nanobody amino acid sequence
Q: What does the source list for B1?
A: thermostabilization of stab-CFTR (Tm increase) [1]: 8 °C; labelling of parental BHK-21 cells (parental BHK-21 cells): no difference in labelling; pull-down of cellular CFTR, electrophoresis pattern (mature band C) (wt-CFTR [2]): also observed; Kd (2PT-NBD1 [3]): 37.9 ± 7 nM; labelling of BHK-21 cells overexpressing wt-CFTR (wt-CFTR [4]): increased labelling; effect of F508del mutation on binding (F508del-2PT-NBD1 [5]): drastically affected; stabilization of F508del-2PT-NBD1 (F508del-2PT-NBD1 [6]): did not stabilize; increase of Tm of 2PT-NBD1 (2PT-NBD1 [7]): 12.5 °C
